In patent US20240000956A1:

Assays:
[1] = biological target: LecRLK-2RPAN (Salix purpurea); assay: size exclusion chromatography, self-association
[2] = biological target: SpG-type LecRLK-2PAN (Salix purpurea); assay: size exclusion chromatography, self-association

percent monomeric [1]	percent in higher-order complex (likely a trimer or tetramer) [2]	percent monomeric [2]	Substance
26.4%	–	–	LecRLK-2RPAN (receptor)
–	48.2%	51.8%	SpG-type LecRLK-2PAN (receptor)
